The values below come from PMC9681084, “MYB44-ENAP1/2 restricts HDT4 to regulate drought tolerance in Arabidopsis” (PLOS Genetics, 2022).

The experiment addresses T1, GST-MYB44 (Arabidopsis, UniProt Q9FDW1 1-305).
T1 construct: MYB44, Arabidopsis; the CDS ligated to pGEX-KG; source: E. coli, purified (Glutathione Sepharose resin)
The experiment can be described thus: pull-down; GST-MYB44 as bait, GST as control; purified proteins from E. coli incubated overnight at 4°C, washed four times, western blot. Particulars: both partners purified. In general terms: In western blotting, separated proteins are transferred to a membrane and probed.

T1 sequence (Q9FDW1 whole entry): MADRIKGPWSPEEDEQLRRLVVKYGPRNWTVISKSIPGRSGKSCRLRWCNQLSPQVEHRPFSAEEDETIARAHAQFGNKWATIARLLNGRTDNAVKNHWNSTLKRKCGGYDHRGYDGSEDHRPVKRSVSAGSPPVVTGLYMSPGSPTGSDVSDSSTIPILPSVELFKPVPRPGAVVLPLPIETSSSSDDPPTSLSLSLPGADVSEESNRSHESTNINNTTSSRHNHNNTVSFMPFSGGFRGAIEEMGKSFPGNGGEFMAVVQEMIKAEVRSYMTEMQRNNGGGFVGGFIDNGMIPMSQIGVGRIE

B1: MBP-ENAP1 (natural protein, Arabidopsis, UniProt Q8VZI9 1-249, looked up)
chain: METTPETQSKTHRLPAGREDWWSEDATATLIEAWGDRYVNLNRGNLRQNDWKEVADAVNSSHGNGRPKTDVQCKNRIDTLKKKYKTEKAKPLSNWCFFDRLDFLIGPVMKKSSGAVVKSALMNPNLNPTGSKSTGSSLDDDDDDDDDDEEDDDDAGDWGFVVRKHRKVEDVDSSEGSAFRELARSILKLGEAFERIEGKKQQMMIELEKQRMEVAKELELQRMNMLMEMQLELEKSKLGKRRAASGKKL
notes: ENAP1, Arabidopsis, AT3G11100; the CDS ligated to pVP13 (His tag removed); source: E. coli, purified (Amylose resin)
Regarding B1, the binding result is recorded as “binds”.

B2: His-HDT4 (enzyme, Arabidopsis, UniProt Q9M4T3 1-203, looked up)
chain: MEFWGIEIKPGKPFKVIQKDGFMVHASQVTLGDVEKVKKDETFAVYVKIGDDENGFMIGNLSQKFPQFSIDLYLGHEFEISHNSTSSVYLIGYRTFDAFDELDEEIDSDSELDEYMEQQIAALPQNEINPEEDDESDSDEMGLDEDDDSSDEEDVEAEAPLKVAPPSKKMPNGAFEIAKGGKKNKSSGGKKRCPFPCGPSCKK
notes: HDT4, histone deacetylase of the HD2 family, Arabidopsis; the CDS ligated to pET28a; source: E. coli, purified (Ni-NTA agarose resin)
On to B2, for which the binding result was “binds”.
